# Measured values taken from patent US20230203178A1 (SICHUAN KELUN BIOTECH BIOPHARMACEUTICAL, published 2023).
# T1: BCMA expressed on target cells (CHO-K1-BCMA recombinant cell line; MM.1S; RPMI8226) (human, UniProt Q02223 1-184)
# T1 sequence (looked up): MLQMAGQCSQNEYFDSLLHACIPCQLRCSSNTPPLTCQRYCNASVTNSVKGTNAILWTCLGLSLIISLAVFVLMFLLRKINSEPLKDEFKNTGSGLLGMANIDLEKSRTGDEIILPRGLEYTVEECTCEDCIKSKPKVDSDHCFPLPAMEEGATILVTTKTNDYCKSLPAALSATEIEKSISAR
# T2: CD19 expressed on Nalm6 cells (UniProt P15391 20-556, limits assumed)
# T2 sequence (looked up): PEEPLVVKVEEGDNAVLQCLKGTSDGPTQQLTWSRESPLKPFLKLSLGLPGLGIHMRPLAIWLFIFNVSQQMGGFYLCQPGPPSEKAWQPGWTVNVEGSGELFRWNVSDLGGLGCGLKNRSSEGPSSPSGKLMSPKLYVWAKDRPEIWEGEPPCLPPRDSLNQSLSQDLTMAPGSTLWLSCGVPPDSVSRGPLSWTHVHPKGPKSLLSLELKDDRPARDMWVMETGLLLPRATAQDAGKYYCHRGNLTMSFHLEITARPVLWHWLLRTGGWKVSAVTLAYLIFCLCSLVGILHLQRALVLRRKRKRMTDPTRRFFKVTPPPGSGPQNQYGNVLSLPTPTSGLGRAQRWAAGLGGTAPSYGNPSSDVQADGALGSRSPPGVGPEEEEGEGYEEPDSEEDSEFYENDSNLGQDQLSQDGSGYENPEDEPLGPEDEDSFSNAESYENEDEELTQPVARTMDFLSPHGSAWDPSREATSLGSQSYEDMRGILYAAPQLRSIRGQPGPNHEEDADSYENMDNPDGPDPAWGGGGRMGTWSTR
# T3: human BCMA (antigen) (human, UniProt Q02223 1-54, limits assumed)
# T3 construct: Antigen coupled to the CM5 chip in SPR; also called B-cell maturation antigen; TNFRF17
# T3 sequence (looked up): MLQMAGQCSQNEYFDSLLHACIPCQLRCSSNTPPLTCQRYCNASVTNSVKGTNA
# T4: human CD19 (antigen) (human, UniProt P15391 20-291, limits assumed)
# T4 sequence (looked up): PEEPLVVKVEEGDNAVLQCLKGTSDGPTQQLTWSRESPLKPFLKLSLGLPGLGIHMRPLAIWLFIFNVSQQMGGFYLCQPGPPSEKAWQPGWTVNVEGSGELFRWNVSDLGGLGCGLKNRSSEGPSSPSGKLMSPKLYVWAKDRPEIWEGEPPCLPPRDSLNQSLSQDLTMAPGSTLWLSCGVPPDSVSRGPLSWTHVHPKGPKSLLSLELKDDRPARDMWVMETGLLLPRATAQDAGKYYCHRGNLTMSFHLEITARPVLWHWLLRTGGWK
# B1: TanCAR 01 (other)
# chain: DIVMTQSPLSLPVTPGEPASISCRSSQSLVHSNGNTFLHWYLQKPGQSPQLLIYKVSNRFSGVPDRFSGSGSGTDFTLKISRVEAEDVGVYYCMQSTHVLTFGGGTKLEIKRAGGGGSGGGGSGGGGSQVQLVQSGAEVKKPGASVKVSCKASGYTFTDYLMHWVRQAPGQGLEWMGWINTETGEPTYADDFKGRVTMTRDTSTSTVYMELSSLRSEDTAVYYCAPSLYYGYSWFTYWGQGTLVTVSGGGGSGGGGSGGGGSGGGGSQVTLRESGPALVKPTQTLTLTCTFSGVSLPDYGVSWIRQPPGKALEWLAVIWGSETTYYNSALKSRLTISKDTSKNQVVLTMTNMDPVDTATYYCAKHYYYGGSYAMDYWGQGTTVTVSSGGGGSGGGGSGGGGSEIVLTQSPATLSLSPGERATLSCRASQDISKYLNWYQQKPGQAPRLLIYHTSRLHSGIPDRFSGSGSGTDFTLTISRLEPEDIAVYYCQQGNTLPYTFGQGTKLEITTTPAPRPPTPAPTIASQPLSLRPEACRPAAGGAVHTRGLDFACDIYIWAPLAGTCGVLLLSLVITLYCKRGRKKLLYIFKQPFMRPVQTTQEEDGCSCRFPEEEEGGCELRVKFSRSADAPAYKQGQNQLYNELNLGRREEYDVLDKRRGRDPEMGGKPRRKNPQEGLYNELQKDKMAEAYSEIGMKGERRRGKGHDGLYQGLSTATKDTYDALHMQALPPR
# notes: Tandem bispecific chimeric antigen receptor on human T cells; built here from its parts without the signal peptide; also called TanCAR 01 CAR-T
# B2: TanCAR 03 (other)
# chain: QVTLRESGPALVKPTQTLTLTCTFSGVSLPDYGVSWIRQPPGKALEWLAVIWGSETTYYNSALKSRLTISKDTSKNQVVLTMTNMDPVDTATYYCAKHYYYGGSYAMDYWGQGTTVTVSSGGGGSGGGGSGGGGSEIVLTQSPATLSLSPGERATLSCRASQDISKYLNWYQQKPGQAPRLLIYHTSRLHSGIPDRFSGSGSGTDFTLTISRLEPEDIAVYYCQQGNTLPYTFGQGTKLEIGGGGSGGGGSGGGGSGGGGSDIVMTQSPLSLPVTPGEPASISCRSSQSLVHSNGNTFLHWYLQKPGQSPQLLIYKVSNRFSGVPDRFSGSGSGTDFTLKISRVEAEDVGVYYCMQSTHVLTFGGGTKLEIKRAGGGGSGGGGSGGGGSQVQLVQSGAEVKKPGASVKVSCKASGYTFTDYLMHWVRQAPGQGLEWMGWINTETGEPTYADDFKGRVTMTRDTSTSTVYMELSSLRSEDTAVYYCAPSLYYGYSWFTYWGQGTLVTVSTTTPAPRPPTPAPTIASQPLSLRPEACRPAAGGAVHTRGLDFACDIYIWAPLAGTCGVLLLSLVITLYCKRGRKKLLYIFKQPFMRPVQTTQEEDGCSCRFPEEEEGGCELRVKFSRSADAPAYKQGQNQLYNELNLGRREEYDVLDKRRGRDPEMGGKPRRKNPQEGLYNELQKDKMAEAYSEIGMKGERRRGKGHDGLYQGLSTATKDTYDALHMQALPPR
# notes: Tandem bispecific chimeric antigen receptor on human T cells; built here from its parts without the signal peptide; also called TanCAR 03 CAR-T
# B3: TanCAR 04 (other)
# chain: QVTLRESGPALVKPTQTLTLTCTFSGVSLPDYGVSWIRQPPGKALEWLAVIWGSETTYYNSALKSRLTISKDTSKNQVVLTMTNMDPVDTATYYCAKHYYYGGSYAMDYWGQGTTVTVSSGGGGSGGGGSGGGGSEIVLTQSPATLSLSPGERATLSCRASQDISKYLNWYQQKPGQAPRLLIYHTSRLHSGIPDRFSGSGSGTDFTLTISRLEPEDIAVYYCQQGNTLPYTFGQGTKLEIEAAAKEAAAKEAAAKDIVMTQSPLSLPVTPGEPASISCRSSQSLVHSNGNTFLHWYLQKPGQSPQLLIYKVSNRFSGVPDRFSGSGSGTDFTLKISRVEAEDVGVYYCMQSTHVLTFGGGTKLEIKRAGGGGSGGGGSGGGGSQVQLVQSGAEVKKPGASVKVSCKASGYTFTDYLMHWVRQAPGQGLEWMGWINTETGEPTYADDFKGRVTMTRDTSTSTVYMELSSLRSEDTAVYYCAPSLYYGYSWFTYWGQGTLVTVSTTTPAPRPPTPAPTIASQPLSLRPEACRPAAGGAVHTRGLDFACDIYIWAPLAGTCGVLLLSLVITLYCKRGRKKLLYIFKQPFMRPVQTTQEEDGCSCRFPEEEEGGCELRVKFSRSADAPAYKQGQNQLYNELNLGRREEYDVLDKRRGRDPEMGGKPRRKNPQEGLYNELQKDKMAEAYSEIGMKGERRRGKGHDGLYQGLSTATKDTYDALHMQALPPR
# notes: Tandem bispecific chimeric antigen receptor on human T cells; built here from its parts without the signal peptide; also called TanCAR 04 CAR-T
# B4: H-BCMA CAR (other)
# chain: DIVMTQSPLSLPVTPGEPASISCRSSQSLVHSNGNTFLHWYLQKPGQSPQLLIYKVSNRFSGVPDRFSGSGSGTDFTLKISRVEAEDVGVYYCMQSTHVLTFGGGTKLEIKRAGGGGSGGGGSGGGGSQVQLVQSGAEVKKPGASVKVSCKASGYTFTDYLMHWVRQAPGQGLEWMGWINTETGEPTYADDFKGRVTMTRDTSTSTVYMELSSLRSEDTAVYYCAPSLYYGYSWFTYWGQGTLVTVSTTTPAPRPPTPAPTIASQPLSLRPEACRPAAGGAVHTRGLDFACDIYIWAPLAGTCGVLLLSLVITLYCKRGRKKLLYIFKQPFMRPVQTTQEEDGCSCRFPEEEEGGCELRVKFSRSADAPAYKQGQNQLYNELNLGRREEYDVLDKRRGRDPEMGGKPRRKNPQEGLYNELQKDKMAEAYSEIGMKGERRRGKGHDGLYQGLSTATKDTYDALHMQALPPR
# notes: Chimeric antigen receptor on human T cells; built here from its parts without the signal peptide; also called H-BCMA CAR-T; BCMA CAR-T
# B5: H-CD19 CAR (other)
# chain: QVTLRESGPALVKPTQTLTLTCTFSGVSLPDYGVSWIRQPPGKALEWLAVIWGSETTYYNSALKSRLTISKDTSKNQVVLTMTNMDPVDTATYYCAKHYYYGGSYAMDYWGQGTTVTVSSGGGGSGGGGSGGGGSEIVLTQSPATLSLSPGERATLSCRASQDISKYLNWYQQKPGQAPRLLIYHTSRLHSGIPDRFSGSGSGTDFTLTISRLEPEDIAVYYCQQGNTLPYTFGQGTKLEITTTPAPRPPTPAPTIASQPLSLRPEACRPAAGGAVHTRGLDFACDIYIWAPLAGTCGVLLLSLVITLYCKRGRKKLLYIFKQPFMRPVQTTQEEDGCSCRFPEEEEGGCELRVKFSRSADAPAYKQGQNQLYNELNLGRREEYDVLDKRRGRDPEMGGKPRRKNPQEGLYNELQKDKMAEAYSEIGMKGERRRGKGHDGLYQGLSTATKDTYDALHMQALPPR
# notes: Chimeric antigen receptor on human T cells; built here from its parts without the signal peptide; also called H-CD19 CAR-T; hCD19 CAR-T
# Biological target: T1, BCMA expressed on target cells …
# Assay: cell-based or functional assay
Binder,"lysis rate of CHO-K1-BCMA-luc cells by CAR-T cells, ratio 0.25:1","lysis rate of CHO-K1-BCMA-luc cells by CAR-T cells, ratio 0.5:1","lysis rate of CHO-K1-BCMA-luc cells by CAR-T cells, ratio 1:1","lysis rate of CHO-K1-BCMA-luc cells by CAR-T cells, ratio 2:1"
B1,31.3%,34.3%,63.2%,71%
B2,17.8%,27.6%,40.5%,52.1%
B3,36.4%,52.6%,68.9%,84.1%
B4,0%,27%,40.7%,77.9%

# Biological target: T2, CD19 expressed on Nalm6 cells
# Assay: cell-based or functional assay
Binder,"lysis rate of Nalm6-luc cells by CAR-T cells, ratio 0.25:1","lysis rate of Nalm6-luc cells by CAR-T cells, ratio 0.5:1","lysis rate of Nalm6-luc cells by CAR-T cells, ratio 1:1","lysis rate of Nalm6-luc cells by CAR-T cells, ratio 2:1"
B1,46.1%,40%,56.8%,80.6%
B2,54.3%,57.7%,72.1%,89.1%
B3,72.7%,55.8%,68.9%,84.1%
B5,48%,55%,72.8%,86.4%

# Biological target: T3, human BCMA (antigen)
# Assay: flow cytometry of lentivirus-transduced T cells labelled with antigen, 48 h after transduction; percent positive cells
# Text: (§1) The nucleic acid sequence encoding the CAR was expressed under the drive of a promoter, therefore the lentivirus-transfected T cells could be labeled with an antigen or anti-CD19 antibody and measured by flow cytometry, to reflect the expression level of the CAR on the surface of the T cells.
row,Binder,Positive rate of binding to BCMA
1,B1,11.3%
2,B2,6.07%
3,B3,15.9%
4,B4,26.9%
5,B5,0.98%

# Biological target: T4, human CD19 (antigen)
# Assay: flow cytometry of lentivirus-transduced T cells labelled with antigen or anti-CD19 antibody, 48 h after transduction; percent positive cells
# Text: as §1
row,Binder,Positive rate of binding to CD19
1,B1,10.6%
2,B2,8.99%
3,B3,16.1%
4,B4,0.31%
5,B5,14.7%
